T1: hIL10Ra-his (Sino Biological, Catalog#10419) (human, UniProt Q13651 22-235)
T1 construct: Bought; also called Sino Biological cat#10419-H08H; not shown: C-terminal poly-His tag
T1 sequence: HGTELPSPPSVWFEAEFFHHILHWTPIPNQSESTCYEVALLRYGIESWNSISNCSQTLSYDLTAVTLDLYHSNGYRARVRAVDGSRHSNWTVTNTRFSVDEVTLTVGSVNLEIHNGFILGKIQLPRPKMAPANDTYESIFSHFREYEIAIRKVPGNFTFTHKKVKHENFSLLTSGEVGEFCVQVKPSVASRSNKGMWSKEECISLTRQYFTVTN

T2: mIL10Rb ECD antigen (mouse, UniProt Q61190 20-220)
T2 construct: Antigen of biopanning and PE-ELISA; also called extracellular domain of mIL10Rb
T2 sequence: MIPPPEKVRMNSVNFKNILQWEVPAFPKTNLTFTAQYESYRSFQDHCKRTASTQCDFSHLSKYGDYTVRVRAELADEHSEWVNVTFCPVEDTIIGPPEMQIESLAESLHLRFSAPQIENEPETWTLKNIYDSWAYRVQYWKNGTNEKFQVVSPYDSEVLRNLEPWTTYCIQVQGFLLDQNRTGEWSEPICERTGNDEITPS

T3: hIL10Ra ECD antigen (human, UniProt Q13651 22-235)
T3 construct: also called ECD of IL10Ra; extracellular domain of hIL10Ra
T3 sequence: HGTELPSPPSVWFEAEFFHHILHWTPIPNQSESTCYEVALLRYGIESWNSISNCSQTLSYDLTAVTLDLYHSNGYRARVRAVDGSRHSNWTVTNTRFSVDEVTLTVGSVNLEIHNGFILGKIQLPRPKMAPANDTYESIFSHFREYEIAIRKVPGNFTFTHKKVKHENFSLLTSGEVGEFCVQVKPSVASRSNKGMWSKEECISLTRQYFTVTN

B1: hIL-10Ra_VHH9 Mono-Fc (Fc fusion)
chain: QVQLQESGGGSVQAGGSLRLSCAVSGYAYSTYCMGWFRQAPGKEREGVAAIDSGGSTSYADSVKGRFTISKDNAKNTLYLRMNSLKPEDTAMYYCAAVPPPPDGGSCLFLGPEIKVSKADFRYWGQGTQVTVSS
notes: Mono-Fc VHH captured on Protein A; not shown: mono-Fc part
B2: DR1326 (anti mouse mIL10Rb VHH) (VHH)
VHH: QVQLQESGGGSVQAGGSLRLSCTASRYIALNACMAWIRQAPGSEREVVATIVTDGSRTYYADSVKGRFTISQDNAKNTMYLQMNGLKPEDTAMYYCAADRRCPVSRAPYEYELRYWGQGTQVTVSS
notes: Phage clone, periplasmic extract
B3: DR1325 (anti mouse mIL10Rb VHH) (VHH)
VHH: QVQLQESGGGSVQAGGSLRLSCAASGYTYNRRFMGWFRQAPGKEREGLAIIYTPNSSTFYADSVTGRFTISQDSARNTVYLQMNSLKPEDTAMYYCAAARIASMTELSVRDMDYWGKGTQVTVSS
notes: as for B2
B4: DR1322 (anti mouse mIL10Rb VHH) (VHH)
VHH: QVQLQESGGGSVQAGGALRLSCTASGYTASSICMGWFRQAPGKERERVAVITTAASGTYYADSVNGRFSISQNNAKNTVYLQMNSLKPDDTAMYYCAATRRGGDCLDPLQTPAYNTWGQGTQVTVSS
notes: as for B2
B5: hIL-10Ra_VHH17 Mono-Fc (Fc fusion)
chain: QVQLQESGGGSVQAGGSLRLSCAASGYSNCSYDMTWYRQAPGKEREFVSAIHSDGSTRYADSVKGRFFISQDNAKNTVYLQMNSLKPEDTAMYYCKTDPLHCRAHGGSWYSVRANYWGQGTQVTVSS
notes: as for B1
B6: hIL10Ra VHH18 (VHH)
VHH: QVQLQESGGGSVQAGGSLRLSCAVSGYTYNSNCMGWFRQAPGKEREGVATIYTGVGSTYYADSVKGRFTISQDNAKNTVYLQMNSLKPEDTAMYYCAAEPLSRVYGGSCPTPTFGYWGQGTQVTVSS
notes: as for B2
B7: hIL-10Ra_VHH12 Mono-Fc (Fc fusion)
chain: QVQLQESGGGSVQAGGSLRLSCTVSGYTYSSNCMGWFRQAPGKEREGVATIYTGGGNTYYADSVKGRFTISQDNAKNTVYLQMNNLKPEDTAMYYCAAEPLSRVYGGSCPTPTFDYWGQGTQVTVSS
notes: as for B1
B8: hIL10Ra VHH13 (VHH)
VHH: QVQLQESGGGSVQAGGSLRLSCAVSGYSYSSNCMGWFRQAPGKEREGVATIHTGGGSTYYADSVKGRFTISQDNAKNTVYLQMNSLKPEDTAMYYCAAEPLSRLYGGSCPTPTFGYWGQGTQVTVSS
notes: as for B2
B9: hIL10Ra VHH7 (VHH)
VHH: QVQLQESGGGSVQAGGSLRLSCAVSGYTFNSNCMGWFRQAPGKEREGVATIYTGVGSTYYADSVKGRFTISQDNAKNTVYLQMNSLKPEDTAMYYCAAEPLSRVYGGSCPTPTFGYWGQGTQVTVSS
notes: as for B2
B10: hIL10Ra VHH2 (VHH)
VHH: QVQLQESGGGSVQAGGSLRLSCVASRYLYSTNYMAWFRQSPGKEREAVAVIYTASGATLYTDSVKGRFTISQDNAKMTVYLQMNRLKSEDTAMYYCAAVRKTDSYLFDAQSFTYWGQGTQVTVSS
notes: as for B2
B11: hIL-10Ra_VHH10 Mono-Fc (Fc fusion)
chain: QVQLQESGGGSVQAGGSLRLSCAASRYLYSIDYMAWFRQSPGKEREPVAVIYTASGATFYPDSVKGRFTISQDNAKMTVYLQMNSLKSEDTAMYYCAAVRKTDSYLFDAQSFTYWGQGTQVTVSS
notes: as for B1
B12: hIL10Ra VHH3 (VHH)
VHH: QVQLQESGGGSIQAGGSLRLSCVASRYLYSTNYMAWFRQSPGKEREAVAVIYTASGATLYTDSVKGRFTISQDNAKMTVYLQMNRLKSEDTAMYYCAAVRKTDSYLFDAQSFTYWGQGTQVTVSS
notes: as for B2
B13: hIL10Ra VHH4 (VHH)
VHH: QVQLQESGGGSIQAGGSLRLSCAASRYLYSIDYMAWFRQSPGKEREPAAVIYTASGATFYPDSVKGRFTISQDNAKMTVYLQMNSLKSEDTAMYYCAAVRKTDSYLFDAQSFTYWGQGTQVTVSS
notes: as for B2
B14: hIL10Ra VHH5 (VHH)
VHH: QVQLQESGGGSIQAGGSLRLSCVASKYLYSTNYMAWFRQSPGKEREAVAAIYTASGATLYSDSNKGRFTISQDNAKMTVYLQMNSLKSEDTAMYYCAAVRKTGSYLFDAQSFTYWGQGTQVTVSS
notes: as for B2
B15: hIL-10Ra_VHH8 Mono-Fc (Fc fusion)
chain: QVQLQESGGGSVQAGGSLRLSCAASGYTYSMYCMGWFRQAPGKEREGVAQINSDGSTSYADSVKGRFTISKDNAKNTLYLQMNSLKPEDTAMYYCAADSRVYGGSWYERLCGPYTYEYNYWGQGTQVTVSS
notes: as for B1
B16: hIL-10Ra_VHH6 Mono-Fc (Fc fusion)
chain: QVQLQESGGGSVQAGGSLRLSCAASRFTYSSYCMGWFRQAPGKEREGVASIDSDGSTSYTDSVKGRFTISKDNAKNTLYLQMNSLKPEDTAMYYCALDLMSTVVPGFCGFLLSAGMDYWGKGTQVTVSS
notes: as for B1
B17: DR1323 (anti mouse mIL10Rb VHH) (VHH)
VHH: QVQLQESGGGSVQAGGSLRLSCVASGDTYSRKYIAWVRQVPGKEREGVAVMYTPGSATYYTDTVMGRFTISQDNAKNTVYLQMNSLKPEDTAMYFCAAKASGSMFNFRDYTYWGQGTQVTVSS
notes: as for B2
B18: DR1324 (anti mouse mIL10Rb VHH) (VHH)
VHH: QVQLQESGGGSVQAGGSLRLSCATSGYASCSRAMRWYRQAPGKEREFVAYIDGVGSTGYADSVKGRFTISQDNAKYTAYLQMNSLKPEDTAMYYCNRGCRADGSNSLDNYWGQGTQVTVSS
notes: as for B2
B19: hIL10Ra VHH11 (VHH)
VHH: QVQLQESGGGSVQAGGSLRLSCGASRYTYSSYCMGWFRQAPGKEREGVAVIDSDGSTSYADSVKGRFTISKDNGKNTLYLQMNSLKPEDTAMYYCAADLGHYRPPCGVLYLGMDYWGKGTQVTVSS
notes: as for B2
B20: hIL-10Ra_VHH14 Mono-Fc (Fc fusion)
chain: QVQLQESGGGSVQAGGSLRLSCGASGYTYSSYCMGWFRQVPGKEREGVAVIDSDGSTSYADSVKGRFTISKDNGKNTLYLQMNSLKPEDTAMYYCAADLGHYRPPCGVLYLGMDYWGKGTQVTVSS
notes: as for B1
B21: hIL10Ra VHH16 (VHH)
VHH: QVQLQESGGGSVQAGGSLRLACAASRYTYSNYCMGWFRQAPGKEREGVATIDSDGNTSYADSVKGRFTISRDNAKNTLYLQMNSLKPGDTAMYYCAADLGHYRPPCGAYYYGMDYWGKGTQVTVSS
notes: as for B2
B22: hIL10Ra VHH15 (VHH)
VHH: QVQLQESGGGSVQAGGSLRLSCGASGYTYSGYCMGWFRQAPGKEREGVAVIDSDGSTSYADSVKGRFTISKDNGKNTLYLQMNSLKPEDTAMYYCAADLGHYRPPCGVLYLGMDYWGKGTQVTVSS
notes: as for B2

Tests used:
[1] = molecular target: T1, hIL10Ra-his (Sino Biological, …); assay: SPR Biacore T200; mono-Fc VHH captured on Protein A chip, hIL10Ra-his analyte; 1:1 Langmuir fit
Text: (§1) To confirm and evaluate binding affinities of the binding of the IL10Ra sdAbs, a representative example from each clonotype generated was selected for evaluation of binding via SPR. […] Buffer-subtracted sensograms were processed with Biacore T200 Evaluation Software and globally fit with a 1:1 Langmuir binding model (bulk shift set to zero) to extract kinetics and affinity constants (kₐ, kd, KD). RMAX<100 RU indicates surface density compatible with kinetics analysis. Calculated Rₘₐₓ values were generated using the equation: Rₘₐₓ=Load (RU)×valency of ligand×(Molecular weight of analyte/Molecular weight of ligand). Surface activity was defined as the ratio of experimental/calculated Rmax.
One representative example from each clonotype of IL10a generated in accordance with Examples 1-3 was selected for evaluation of binding via SPR as follows. […] All experiments were conducted in 10 mM Hepes, 150 mM NaCl, 0.05% (v/v) Polysorbate 20 (PS20) and 3 mM EDTA (HBS-EP+ buffer) on a Biacore T200 instrument equipped with a Protein A derivatized sensor chip (Cytiva). Mono-Fc VHH ligands were flowed at 5 μl/min for variable time ranging from 18 to 300 seconds, reaching the capture loads listed in the tables below. Following ligand capture, […], typically comprising at least five concentrations between 1 μM and 1 nM, were performed in either high performance or single cycle kinetics mode. Surface regeneration was achieved by flowing 10 mM glycine-HCl, pH 1.5 (60 seconds, 50 μL/min).

[2] = molecular target: T1, hIL10Ra-his (Sino Biological, …); assay: SPR; ratio of experimental to calculated Rmax
Text: as §1
One representative example from each clonotype of IL10a generated in accordance with Examples 1-3 was selected for evaluation of binding via SPR as follows. […] All experiments were conducted in 10 mM Hepes, 150 mM NaCl, 0.05% (v/v) Polysorbate 20 (PS20) and 3 mM EDTA (HBS-EP+ buffer) on a Biacore T200 instrument equipped with a Protein A derivatized sensor chip (Cytiva). Mono-Fc VHH ligands were flowed at 5 μl/min for variable time ranging from 18 to 300 seconds, reaching the capture loads listed in the tables below. Following ligand capture, injections of a 2-fold dilution series of the extracellular domain of the […] modified to incorporate a C-terminal poly-His sequence, typically comprising at least five concentrations between 1 μM and 1 nM, were performed in either high performance or single cycle kinetics mode. Surface regeneration was achieved by flowing 10 mM glycine-HCl, pH 1.5 (60 seconds, 50 μL/min).

mIL10Rb ECD antigen = molecular target: T2, mIL10Rb ECD antigen; assay: periplasmic extract ELISA (PE-ELISA) of phage clones
hIL10Ra ECD antigen = molecular target: T3, hIL10Ra ECD antigen; assay: as above

Binder	Kd [1] [nM]	koff [1] [s⁻¹]	kon [1] [M⁻¹ s⁻¹]	Surface Activity [2] [%]	binding result (hIL10Ra ECD antigen)	further results
B1	11.6	0.00115	99700	66	–	–
B2	–	–	–	–	–	binding result (mIL10Rb ECD antigen): binds
B3	–	–	–	–	–	binding result (mIL10Rb ECD antigen): binds
B4	–	–	–	–	–	binding result (mIL10Rb ECD antigen): binds
B5	6	0.00197	327000	35	–	–
B6	–	–	–	–	binds	–
B7	7.7	0.00119	154000	73	–	–
B8	–	–	–	–	binds	–
B9	–	–	–	–	binds	–
B10	–	–	–	–	binds	–
B11	13.4	0.00139	104000	57	–	–
B12	–	–	–	–	binds	–
B13	–	–	–	–	binds	–
B14	–	–	–	–	binds	–
B15	6.4	0.00107	168000	57	–	–
B16	1.8	0.00019	106000	83	–	–
B17	–	–	–	–	–	binding result (mIL10Rb ECD antigen): binds
B18	–	–	–	–	–	binding result (mIL10Rb ECD antigen): binds
B19	–	–	–	–	binds	–
B20	1.4	0.000136	98400	51	–	–
B21	–	–	–	–	binds	–
B22	–	–	–	–	binds	–

Reference: patent US20250163167A1 (SYNTHEKINE, published 2025)
